Measurements taken from US10925971B2, “Methods of treating PRLR positive breast cancer” (Regeneron Pharmaceuticals, Inc., priority 2016, dated 2021).

T1: human PRLR on HEK293/hPRLR cells (Homo sapiens, UniProt P16471)
T1 construct: HA; expressed in transfected cells; host or cells: HEK293
T1 sequence (P16471 25-622): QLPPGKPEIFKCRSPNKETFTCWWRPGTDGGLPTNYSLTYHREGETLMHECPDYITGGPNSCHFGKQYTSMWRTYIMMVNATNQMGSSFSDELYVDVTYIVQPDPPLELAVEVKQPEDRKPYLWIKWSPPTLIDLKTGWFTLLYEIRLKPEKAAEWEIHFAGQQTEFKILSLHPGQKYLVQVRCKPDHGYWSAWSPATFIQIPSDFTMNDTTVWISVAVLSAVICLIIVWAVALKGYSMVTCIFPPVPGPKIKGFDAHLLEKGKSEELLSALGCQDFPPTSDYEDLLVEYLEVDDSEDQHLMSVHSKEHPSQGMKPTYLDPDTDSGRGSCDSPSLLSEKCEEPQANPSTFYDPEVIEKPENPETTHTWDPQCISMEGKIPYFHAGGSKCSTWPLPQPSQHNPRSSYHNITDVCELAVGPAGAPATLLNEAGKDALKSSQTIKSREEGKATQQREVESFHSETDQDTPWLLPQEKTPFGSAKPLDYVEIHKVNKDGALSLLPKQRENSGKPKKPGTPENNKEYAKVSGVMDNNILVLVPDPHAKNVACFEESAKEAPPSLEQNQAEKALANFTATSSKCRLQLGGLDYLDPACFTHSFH

T2: monkey PRLR on HEK293/mfPRLR cells (Macaca fascicularis, UniProt A0A2K5WXK1)
T2 construct: HA; expressed in transfected cells; host or cells: HEK293
T2 sequence (A0A2K5WXK1 25-619): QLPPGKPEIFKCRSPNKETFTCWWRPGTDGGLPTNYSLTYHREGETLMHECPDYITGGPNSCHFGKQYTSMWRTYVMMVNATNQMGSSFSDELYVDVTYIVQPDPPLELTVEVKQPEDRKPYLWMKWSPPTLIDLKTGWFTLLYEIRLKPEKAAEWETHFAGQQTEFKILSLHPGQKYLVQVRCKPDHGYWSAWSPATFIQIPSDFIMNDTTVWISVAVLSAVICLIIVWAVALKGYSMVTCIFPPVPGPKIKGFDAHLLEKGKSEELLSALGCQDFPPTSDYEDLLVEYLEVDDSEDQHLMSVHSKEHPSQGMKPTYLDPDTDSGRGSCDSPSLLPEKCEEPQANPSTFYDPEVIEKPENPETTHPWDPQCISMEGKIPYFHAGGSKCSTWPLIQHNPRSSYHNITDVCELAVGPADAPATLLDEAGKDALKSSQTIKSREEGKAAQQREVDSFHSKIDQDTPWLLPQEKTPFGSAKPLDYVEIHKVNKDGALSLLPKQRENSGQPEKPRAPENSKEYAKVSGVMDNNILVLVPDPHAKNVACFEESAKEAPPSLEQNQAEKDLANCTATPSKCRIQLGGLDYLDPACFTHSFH

T3: mouse PRLR on HEK293/mPRLR cells (Mus musculus, UniProt Q08501)
T3 construct: HA; expressed in transfected cells; host or cells: HEK293
T3 sequence (Q08501 20-608): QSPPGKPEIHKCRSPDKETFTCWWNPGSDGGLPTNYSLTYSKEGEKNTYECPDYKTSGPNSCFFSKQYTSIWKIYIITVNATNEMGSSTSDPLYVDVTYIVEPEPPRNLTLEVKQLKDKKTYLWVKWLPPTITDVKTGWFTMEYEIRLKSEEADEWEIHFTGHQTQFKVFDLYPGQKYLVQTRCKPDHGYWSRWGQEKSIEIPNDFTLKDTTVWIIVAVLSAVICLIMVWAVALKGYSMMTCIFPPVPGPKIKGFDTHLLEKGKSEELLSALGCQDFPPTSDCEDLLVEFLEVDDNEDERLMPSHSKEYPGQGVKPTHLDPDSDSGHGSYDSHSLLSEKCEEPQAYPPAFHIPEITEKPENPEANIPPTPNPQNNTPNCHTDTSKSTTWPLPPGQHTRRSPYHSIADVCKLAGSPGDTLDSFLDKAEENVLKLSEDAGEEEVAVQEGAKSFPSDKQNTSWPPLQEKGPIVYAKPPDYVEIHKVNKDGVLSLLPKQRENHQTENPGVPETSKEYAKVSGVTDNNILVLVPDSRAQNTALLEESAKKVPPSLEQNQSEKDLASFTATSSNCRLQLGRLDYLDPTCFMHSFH

T4: native PRLR expressing T47D cells (Homo sapiens, UniProt P16471)
T4 construct: a native PRLR expressing cell line (T47D); endogenous in cells; host or cells: T47D
T4 sequence (P16471 25-622): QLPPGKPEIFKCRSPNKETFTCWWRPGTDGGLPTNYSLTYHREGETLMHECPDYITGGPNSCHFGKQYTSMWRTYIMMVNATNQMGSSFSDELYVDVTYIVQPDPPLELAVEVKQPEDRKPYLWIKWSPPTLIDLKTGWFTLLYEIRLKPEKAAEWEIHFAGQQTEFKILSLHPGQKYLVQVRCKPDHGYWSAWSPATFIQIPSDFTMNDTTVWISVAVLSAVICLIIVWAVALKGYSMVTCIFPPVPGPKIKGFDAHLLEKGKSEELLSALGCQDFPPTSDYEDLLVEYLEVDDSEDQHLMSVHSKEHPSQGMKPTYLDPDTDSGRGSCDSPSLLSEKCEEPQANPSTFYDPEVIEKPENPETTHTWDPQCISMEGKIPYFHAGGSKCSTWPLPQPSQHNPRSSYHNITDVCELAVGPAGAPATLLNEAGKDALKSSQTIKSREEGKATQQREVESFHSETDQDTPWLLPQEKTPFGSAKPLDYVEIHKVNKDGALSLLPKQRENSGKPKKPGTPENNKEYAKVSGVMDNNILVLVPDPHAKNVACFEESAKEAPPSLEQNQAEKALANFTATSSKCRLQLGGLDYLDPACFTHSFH


Assays:
[1] = tested on: Macaca fascicularis PRLR (mfPRLR.mmh; SEQ ID NO:403); assay: Surface plasmon resonance (Biacore T200), antibody-capture format; assay type: binding; conditions: analyte mfPRLR.mmh
Chain of Macaca fascicularis PRLR (mfPRLR.mmh; SEQ ID NO:403) (as listed by the source): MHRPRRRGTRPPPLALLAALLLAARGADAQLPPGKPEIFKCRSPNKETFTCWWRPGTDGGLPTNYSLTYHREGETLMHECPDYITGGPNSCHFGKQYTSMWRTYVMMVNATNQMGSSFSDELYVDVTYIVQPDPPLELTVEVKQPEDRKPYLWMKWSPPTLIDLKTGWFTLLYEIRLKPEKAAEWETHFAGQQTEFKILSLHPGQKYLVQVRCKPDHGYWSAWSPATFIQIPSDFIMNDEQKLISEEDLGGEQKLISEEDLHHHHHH
Experimental: (§1) Antibodies, expressed as human IgG1 Fc (i.e., “H1H” designations), were captured onto an anti-human Fc sensor surface (mAb-capture format), and soluble monomeric (hPRLR.mmh; SEQ ID NO:401, or Macaca fascicularis (mf) PRLR.mmh; SEQ ID NO:403) or dimeric (hPRLR.mFc; SEQ ID NO:402) PRLR protein was injected over the sensor surface. Measurements were conducted on a T200 Biacore instrument. Kinetic association (ka) and dissociation (kd) rate constants were determined by processing and fitting the data to a 1:1 binding model using Scrubber 2.0 curve fitting software.

[2] = target: T5, dimeric human PRLR (hPRLR.mFc; SEQ ID NO:402) (Homo sapiens, UniProt P16471); assay: as above; assay type: binding; conditions: analyte hPRLR.mFc
T5 construct: dimeric (hPRLR.mFc)
T5 sequence (P16471 with tags, fused parts or gaps): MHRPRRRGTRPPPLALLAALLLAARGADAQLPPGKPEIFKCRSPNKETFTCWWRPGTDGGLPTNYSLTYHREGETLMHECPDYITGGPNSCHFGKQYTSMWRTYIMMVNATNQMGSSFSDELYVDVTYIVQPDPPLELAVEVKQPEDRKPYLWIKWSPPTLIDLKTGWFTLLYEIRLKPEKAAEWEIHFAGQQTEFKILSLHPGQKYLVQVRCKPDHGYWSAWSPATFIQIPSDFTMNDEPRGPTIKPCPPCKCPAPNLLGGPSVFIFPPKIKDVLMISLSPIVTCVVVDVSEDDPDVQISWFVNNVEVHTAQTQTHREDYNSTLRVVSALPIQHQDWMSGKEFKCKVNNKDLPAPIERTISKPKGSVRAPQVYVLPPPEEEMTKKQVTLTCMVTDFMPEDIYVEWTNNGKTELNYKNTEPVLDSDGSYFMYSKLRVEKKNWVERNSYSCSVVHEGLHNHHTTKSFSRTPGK
Experimental: as §1

[3] = target: T6, monomeric human PRLR (hPRLR.mmh; SEQ ID NO:401) (Homo sapiens, UniProt P16471); assay: as above; assay type: binding; conditions: analyte hPRLR.mmh
T6 construct: soluble monomeric (hPRLR.mmh); mmh (myc-myc-hexahistidine) (C)
T6 sequence (P16471 with tags, fused parts or gaps): as the sequence (as listed by the source) above, with V105I, T139A, M154I, T187I, I236T counted along it
Experimental: as §1

HEK293 parental cells = assay: FACS cell surface binding; parameters: species or system human
Experimental: (§2) The ability of anti-PRLR antibodies to selectively bind PRLR expressing cell lines was next determined. Human, monkey Macaca fascicularis, and mouse PRLR constructs with an HA tag were stably introduced into HEK293 cells via Lipofectamine 2000-mediated transfection methodology. Transfectants (HEK293/hPRLR, HEK293/mfPRLR and HEK293/mPRLR) were selected for at least 2 weeks in complete growth media plus G418.
(§3) Cell surface expression of PRLR on 293/hPRLR cells was assessed via FACS analysis. Briefly, 1×10^5 cells were incubated with 10 μg/ml of Control antibody I, or an isotype control for 30 min on ice in antibody dilution buffer. Following two washes with antibody dilution buffer, cells were incubated with 10 μg/ml of PE conjugated anti-human secondary antibodies for 30 min on ice. Following two additional washes, samples were run on a Hypercyt® cytometer and analyzed in ForeCyt™ (IntelliCyt, Albuquerque, N. Mex.). The mean fluorescence intensities (MFI) were expressed as fold change above isotype control levels (background). FACS binding confirmed that Control I selectively bound to 293/hPRLR expressing cells with MFIs that were 30 fold above background (isotype ctrl) levels and less than 2 fold binding on parental cells.
(§4) Next, the anti-PRLR antibodies were tested via FACS for selective binding to the engineered overexpressing PRLR HEK293 cell lines, as well as to non-expressing HEK293 cells and a native PRLR expressing cell line (T47D).

[4] = target: T1, human PRLR on HEK293/hPRLR cells; assay: FACS cell surface binding
Experimental: as §2, §3, §4

[5] = target: T2, monkey PRLR on HEK293/mfPRLR cells; assay: FACS cell surface binding
Experimental: as §2, §3, §4

[6] = target: T3, mouse PRLR on HEK293/mPRLR cells; assay: FACS cell surface binding
Experimental: as §2, §3, §4

[7] = target: T4, native PRLR expressing T47D cells; assay: FACS cell surface binding
Experimental: as §3, §4

Row | kd ([1]; 25° C.) | kd ([1]; 37° C.) | ka ([2]; 25° C.) | kd ([2]; 25° C.) | ka ([2]; 37° C.) | kd ([2]; 37° C.) | ka ([3]; 25° C.) | kd ([3]; 25° C.) | ka ([3]; 37° C.) | kd ([3]; 37° C.) | FACS Cell Binding [4] | FACS Cell Binding [5] | FACS Cell Binding [6] | FACS Cell Binding [7] | Molecule | ka ([1]; 25° C.) | ka ([1]; 37° C.) | FACS Cell Binding (HEK293 parental cells)
1 | 0.000325 s⁻¹ | 0.0012 s⁻¹ | 931000 M/s | 4.08e-05 s⁻¹ | 1.88e+06 M/s | 0.000127 s⁻¹ | 852000 M/s | 0.000257 s⁻¹ | 1.58e+06 M/s | 0.00096 s⁻¹ | 29 Fold Above Background | 18 Fold Above Background | 1 Fold Above Background | 31 Fold Above Background | H1H6966N: anti-PRLR antibody, human IgG1 Fc form of H2M6966N of Table 1; HCVR/LCVR SEQ ID NOs 338/346 (antibody, V domains shown, human IgG1 Fc) VH: QVQLVQSGAEVQKPGASVKVSCKVSGYTLTALSIHWVRQAPGKGLEWMGNFDPGDGETIHAQKFQGRVTMTGDTSTDTAYMELSSLRSEDTAVYYCVGVTFDYWGQGTLVTVSS VL: EIVMTQSPATLSVSPGERATLSCRASQSVASNLAWYQQKPGQAPRLLLYGASTRATGIPARFSGSGSGTEFTLTISSLQSEDFALYYCQHYNNWPLTFGGGTKVEIK | 782000 M/s | 1.22e+06 M/s | 1 Fold Above Background
2 | 0.0167 s⁻¹ | 0.0165 s⁻¹ | 359000 M/s | 0.000518 s⁻¹ | 509000 M/s | 0.0023 s⁻¹ | 179000 M/s | 0.036 s⁻¹ | 40600 M/s | 0.0277 s⁻¹ | 6 Fold Above Background | 11 Fold Above Background | 2 Fold Above Background | 9 Fold Above Background | H1H6959N2: anti-PRLR antibody, human IgG1 Fc form of H2M6959N2 of Table 1; HCVR/LCVR SEQ ID NOs 306/314 (antibody, V domains shown) VH: EVQLVESGGGLVQPGRSLRLSCAASGFTFDDYAMHWVRQAPGKGLEWVSGISWHSGIIGYADSVKGRFTISRDNAKNSLYLQMNSLRTEDAALYYCAKIGSYFYFDSWGQGTLVTVSS VL: EIVLTQSPGTLSLSPGERATLSCRASQSVSSNYLAWYQQKPGQAPRLLIYGASSRATGIPDRFSGSGSGTDFTLTISRLEPEDFAVYYCQQFGSSGYTFGQGTNLEIK | 129000 M/s | 44600 M/s | 1 Fold Above Background

Further lines, the molecule ahead of its results:

Row | Molecule | kd ([1]; 25° C.) | kd ([1]; 37° C.) | ka ([2]; 25° C.) | kd ([2]; 25° C.) | ka ([2]; 37° C.) | kd ([2]; 37° C.) | ka ([3]; 25° C.) | kd ([3]; 25° C.) | ka ([3]; 37° C.) | kd ([3]; 37° C.) | FACS Cell Binding [4] | FACS Cell Binding [5] | FACS Cell Binding [6] | FACS Cell Binding [7] | ka ([1]; 25° C.) | ka ([1]; 37° C.) | FACS Cell Binding (HEK293 parental cells)
3 | H1H6967N: anti-PRLR antibody, human IgG1 Fc form of H2M6967N of Table 1; HCVR/LCVR SEQ ID NOs 354/362 (antibody, V domains shown, human IgG1 Fc) VH: EVQLVESGGDLVHPGRSLRLSCAASGFPFDEYAMHWVRQVPGKGLEWVSGISWSNNNIGYADSVKGRFTISRDNAKNSLYLQMNSLRPEDTAFYYCAKSGIFDSWGQGTLVTVSS VL: EIVMTQSPATLSVSPGERATLSCRASQSVSRDLAWYQQKPGQAPRLLIHGASTRATGIPARFSGSGSGAEFTLIISSLQSEDFAVYYCQQYNNWPLTFGGGTKVEIK | 0.000585 s⁻¹ | 0.00162 s⁻¹ | 407000 M/s | 4.45e-05 s⁻¹ | 907000 M/s | 9.73e-05 s⁻¹ | 246000 M/s | 0.000332 s⁻¹ | 424000 M/s | 0.000933 s⁻¹ | 38 Fold Above Background | 28 Fold Above Background | 2 Fold Above Background | 41 Fold Above Background | 190000 M/s | 356000 M/s | 1 Fold Above Background
4 | H1H6960N: anti-PRLR antibody, human IgG1 Fc form of H2M6960N of Table 1; HCVR/LCVR SEQ ID NOs 322/330 (antibody, V domains shown, human IgG1 Fc) VH: EVQLVESGGGLVKPGGSLRLSCAASGITFSSYSMNWVRQAPGKGLEWVSSISTRSSLIHYADSVKGRFTISRDNAKNSLYLQMNSLRDEDTAVYYCARWDAAAAFDYWGQGTLVIVSS VL: DIQLTQSPSFLSASVGDRVTITCWASQGISSYLAWYQQKPGKAPKLLIYVASTLQSGVPSRFSGSGSGTEFTLTISSLQPEDFATYFCQQLNSYPLTFGGGTKVEIK | 0.000583 s⁻¹ | 0.00128 s⁻¹ | 252000 M/s | 3.56e-05 s⁻¹ | 294000 M/s | 0.000147 s⁻¹ | 108000 M/s | 0.000729 s⁻¹ | 122000 M/s | 0.00198 s⁻¹ | 29 Fold Above Background | 23 Fold Above Background | 1 Fold Above Background | 33 Fold Above Background | 94000 M/s | 86400 M/s | 1 Fold Above Background
